Measurements taken from publication doi:10.1101/2024.09.20.614047, “The Role of ATP Synthase Subunit e (ATP5I) in Mediating the Metabolic and Antiproliferative Effects of Metformin” (bioRxiv, 2024).

Target: the molecule itself
Experiment: SEC; gel filtration of purified rATP5I (Superose 12 10/300 GL in legend B; calibrated Superose 6 10/300 GL in legend C); oligomeric state of the protein in solution

B1: recombinant purified ATP5I (ATP synthase subunit e), N-terminal 6x-His-tagged (natural protein, human, UniProt P56385 1-69, looked up)
chain: MVPPVQVSPLIKLGRYSALFLGVAYGATRYNYLKPRAEEERRIAAEEKKKQDELKRIARELAEDDSILK
notes: No cleavage of the His tag is described; the gel filtration legend names the Nter-6×His-ATP5I construct; also called rATP5I; recombinant ATP5I; source: Rosetta E. coli BL21, purified (solubilised in 6 M guanidine, HisTrap FF, desalting column, concentrated); not shown: 6x-His, N-terminal, kept
  stoichiometry N: ~10
